{"source": "paper PMC5913336", "about": "“True equilibrium measurement of transcription factor-DNA binding affinities using automated polarization microscopy”", "binders": {"B1": {"name": "Bcd competitor 32 (T11G) (dsDNA)", "DNA 1": "TCGACGGTAATCCCGA", "DNA 2": "TCGGGATTACGGTCGA"}, "B2": {"name": "Bcd competitor 4 (G2C) (dsDNA)", "DNA 1": "TCGACCGTAATCCCTA", "DNA 2": "TAGGGATTACCGTCGA"}, "B3": {"name": "Bcd competitor 31 (T11C) (dsDNA)", "DNA 1": "TCGACGGTAATCCCCA", "DNA 2": "TGGGGATTACGGTCGA"}, "B4": {"name": "Bcd competitor 3 (C1A) (dsDNA)", "DNA 1": "TCGAAGGTAATCCCTA", "DNA 2": "TAGGGATTACGTTCGA"}, "B5": {"name": "Bcd Cy5 reference (dsDNA)", "DNA 1": "TCGACGCTAAGCTGTA", "DNA 2": "TACAGCTTAGCGTCGA"}, "B6": {"name": "Bcd competitor 2 (C1T) (dsDNA)", "DNA 1": "TCGATGGTAATCCCTA", "DNA 2": "TAGGGATTACGATCGA"}, "B7": {"name": "Bcd competitor 5 (G2T) (dsDNA)", "DNA 1": "TCGACTGTAATCCCTA", "DNA 2": "TAGGGATTACAGTCGA"}, "B8": {"name": "Bcd competitor 6 (G2A) (dsDNA)", "DNA 1": "TCGACAGTAATCCCTA", "DNA 2": "TAGGGATTACTGTCGA"}, "B9": {"name": "Bcd competitor 33 (T11A) (dsDNA)", "DNA 1": "TCGACGGTAATCCCAA", "DNA 2": "TTGGGATTACGGTCGA"}, "B10": {"name": "Bcd competitor 7 (G3C) (dsDNA)", "DNA 1": "TCGACGCTAATCCCTA", "DNA 2": "TAGGGATTAGGGTCGA"}, "B11": {"name": "Bcd EMSA probe (dsDNA)", "DNA 1": "TCGACCGTAATCCCTA", "DNA 2": "TAGGGATTACGGTCGA"}}, "key": {"Bicoid DBD-GST (Bcd) [1]": {"target": "T1, Bicoid DBD-GST (Bcd) (UniProt P09081 83-170)", "T1 sequence": "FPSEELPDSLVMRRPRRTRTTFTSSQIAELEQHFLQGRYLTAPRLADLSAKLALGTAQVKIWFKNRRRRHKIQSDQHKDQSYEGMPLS", "assay": "competitive fluorescence anisotropy (HiP-FA); mean of replicates 5.163, 4.995; HiP-FA: 33 mM phosphate pH 7.0, 90 mM NaCl, 0.01% Tween 20, 0.1 mM DTT, 0.5% agarose; conventional titration and EMSA: 20 mM Tris-acetate pH 7.0, 50 nM (sic) NaCl, 0.01% Tween-20, 0.1 mM DTT", "settings": "protein: recombinant; tags: N-terminal GST; blunt, G:G mismatch at position 6"}, "Bicoid DBD-GST (Bcd) [2]": {"target": "T1, Bicoid DBD-GST (Bcd)", "assay": "competitive fluorescence anisotropy (HiP-FA); mean of replicates 4.889, 5.1445; HiP-FA: 33 mM phosphate pH 7.0, 90 mM NaCl, 0.01% Tween 20, 0.1 mM DTT, 0.5% agarose; conventional titration and EMSA: 20 mM Tris-acetate pH 7.0, 50 nM (sic) NaCl, 0.01% Tween-20, 0.1 mM DTT", "settings": "protein: recombinant; tags: N-terminal GST; blunt, C:C mismatch at position 6 as printed"}, "Bicoid DBD-GST (Bcd) [3]": {"target": "T1, Bicoid DBD-GST (Bcd)", "assay": "competitive fluorescence anisotropy (HiP-FA); mean of replicates 3.961, 3.634; HiP-FA: 33 mM phosphate pH 7.0, 90 mM NaCl, 0.01% Tween 20, 0.1 mM DTT, 0.5% agarose; conventional titration and EMSA: 20 mM Tris-acetate pH 7.0, 50 nM (sic) NaCl, 0.01% Tween-20, 0.1 mM DTT", "settings": "protein: recombinant; tags: N-terminal GST; blunt, G:G mismatch at position 6"}, "Bicoid DBD-GST (Bcd) [4]": {"target": "T1, Bicoid DBD-GST (Bcd)", "assay": "competitive fluorescence anisotropy (HiP-FA); mean of replicates 3.751, 3.7605; HiP-FA: 33 mM phosphate pH 7.0, 90 mM NaCl, 0.01% Tween 20, 0.1 mM DTT, 0.5% agarose; conventional titration and EMSA: 20 mM Tris-acetate pH 7.0, 50 nM (sic) NaCl, 0.01% Tween-20, 0.1 mM DTT", "settings": "protein: recombinant; tags: N-terminal GST; blunt, G:G mismatch at position 6"}, "Bcd homeodomain [5]": {"target": "T2, Bcd homeodomain (Drosophila melanogaster, UniProt P09081-2 77-166)", "T2 sequence": "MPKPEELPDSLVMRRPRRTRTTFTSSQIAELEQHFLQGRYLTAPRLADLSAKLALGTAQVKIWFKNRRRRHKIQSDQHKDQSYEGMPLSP", "assay": "FP; binding buffer, no gel", "settings": "tags: N-GST (pGEX-6P-1, kept); label: 5' Cy5 on strand 1"}, "Bicoid DBD-GST (Bcd) [6]": {"target": "T1, Bicoid DBD-GST (Bcd)", "assay": "competitive fluorescence anisotropy (HiP-FA); mean of replicates 2.816, 2.505; HiP-FA: 33 mM phosphate pH 7.0, 90 mM NaCl, 0.01% Tween 20, 0.1 mM DTT, 0.5% agarose; conventional titration and EMSA: 20 mM Tris-acetate pH 7.0, 50 nM (sic) NaCl, 0.01% Tween-20, 0.1 mM DTT", "settings": "protein: recombinant; tags: N-terminal GST; blunt, G:G mismatch at position 6"}, "Bicoid DBD-GST (Bcd) [7]": {"target": "T1, Bicoid DBD-GST (Bcd)", "assay": "competitive fluorescence anisotropy (HiP-FA); mean of replicates 6.544, 6.784; HiP-FA: 33 mM phosphate pH 7.0, 90 mM NaCl, 0.01% Tween 20, 0.1 mM DTT, 0.5% agarose; conventional titration and EMSA: 20 mM Tris-acetate pH 7.0, 50 nM (sic) NaCl, 0.01% Tween-20, 0.1 mM DTT", "settings": "protein: recombinant; tags: N-terminal GST; blunt"}, "Bicoid DBD-GST (Bcd) [8]": {"target": "T1, Bicoid DBD-GST (Bcd)", "assay": "competitive fluorescence anisotropy (HiP-FA); mean of replicates 6.092, 5.6175; HiP-FA: 33 mM phosphate pH 7.0, 90 mM NaCl, 0.01% Tween 20, 0.1 mM DTT, 0.5% agarose; conventional titration and EMSA: 20 mM Tris-acetate pH 7.0, 50 nM (sic) NaCl, 0.01% Tween-20, 0.1 mM DTT", "settings": "protein: recombinant; tags: N-terminal GST; blunt"}, "Bicoid DBD-GST (Bcd) [9]": {"target": "T1, Bicoid DBD-GST (Bcd)", "assay": "competitive fluorescence anisotropy (HiP-FA); mean of replicates 5.027, 4.3975; HiP-FA: 33 mM phosphate pH 7.0, 90 mM NaCl, 0.01% Tween 20, 0.1 mM DTT, 0.5% agarose; conventional titration and EMSA: 20 mM Tris-acetate pH 7.0, 50 nM (sic) NaCl, 0.01% Tween-20, 0.1 mM DTT", "settings": "protein: recombinant; tags: N-terminal GST; blunt, G:G mismatch at position 6"}, "Bicoid DBD-GST (Bcd) [10]": {"target": "T1, Bicoid DBD-GST (Bcd)", "assay": "competitive fluorescence anisotropy (HiP-FA); mean of replicates 2.884, 2.6855; HiP-FA: 33 mM phosphate pH 7.0, 90 mM NaCl, 0.01% Tween 20, 0.1 mM DTT, 0.5% agarose; conventional titration and EMSA: 20 mM Tris-acetate pH 7.0, 50 nM (sic) NaCl, 0.01% Tween-20, 0.1 mM DTT", "settings": "protein: recombinant; tags: N-terminal GST; blunt, G:G mismatch at position 6"}, "Bcd homeodomain [11]": {"target": "T2, Bcd homeodomain", "assay": "EMSA; 20 mM Tris-acetate pH 7.0, 50 \"nM\" NaCl as printed (probably mM), 0.01% Tween 20, 0.1 mM DTT, 10% glycerol; room temperature; 4 nM probe", "settings": "tags: N-GST (pGEX-6P-1, kept); label: Cy3"}}, "data": [{"binder": "B1", "values": [{"measurement": "Kd", "setting": "Bicoid DBD-GST (Bcd) [1]", "result": 5.08, "unit": "nM"}]}, {"binder": "B2", "values": [{"measurement": "Kd", "setting": "Bicoid DBD-GST (Bcd) [2]", "result": 5.02, "unit": "nM"}]}, {"binder": "B3", "values": [{"measurement": "Kd", "setting": "Bicoid DBD-GST (Bcd) [3]", "result": 3.8, "unit": "nM"}]}, {"binder": "B4", "values": [{"measurement": "Kd", "setting": "Bicoid DBD-GST (Bcd) [4]", "result": 3.76, "unit": "nM"}]}, {"binder": "B5", "values": [{"measurement": "koff", "setting": "Bcd homeodomain [5]", "result": 0.41, "unit": "s⁻¹"}]}, {"binder": "B6", "values": [{"measurement": "Kd", "setting": "Bicoid DBD-GST (Bcd) [6]", "result": 2.66, "unit": "nM"}]}, {"binder": "B7", "values": [{"measurement": "Kd", "setting": "Bicoid DBD-GST (Bcd) [7]", "result": 6.66, "unit": "nM"}]}, {"binder": "B8", "values": [{"measurement": "Kd", "setting": "Bicoid DBD-GST (Bcd) [8]", "result": 5.86, "unit": "nM"}]}, {"binder": "B9", "values": [{"measurement": "Kd", "setting": "Bicoid DBD-GST (Bcd) [9]", "result": 4.71, "unit": "nM"}]}, {"binder": "B10", "values": [{"measurement": "Kd", "setting": "Bicoid DBD-GST (Bcd) [10]", "result": 2.79, "unit": "nM"}]}, {"binder": "B11", "values": [{"measurement": "Kd", "setting": "Bcd homeodomain [11]", "result": "1.8 ± 0.2", "unit": "nM"}]}]}
